Source: US20240132615A1 (ICHNOS SCIENCES, published 2024)

Experiments:
[1] = target: T1, recombinant cynomolgus monkey BCMA Fc fusion protein (Acrobiosystems BCA-C5253) (cynomolgus monkey, UniProt A0A2K5UD97 1-53); experiment: SPR, Fab as analyte, captured cynomolgus BCMA-Fc
T1 construct: bought protein; not shown: Fc of the bought fusion protein, not described

[2] = target: T2, recombinant human BCMA Fc fusion protein (Acrobiosystems BC7-H5254 / BCA-H5254) (human, UniProt Q02223 1-54); experiment: SPR, Fab as analyte, captured human BCMA-Fc
T2 construct: also called recombinant BCMA-Fc protein; not shown: Fc of the bought fusion protein, not described
T2 sequence (looked up): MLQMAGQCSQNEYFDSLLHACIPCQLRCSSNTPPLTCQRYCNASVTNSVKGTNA

[3] = target: T3, human BCMA on cells (NCI-H929, NCI-H929 CD38 KO, MOLP-8) (human, UniProt Q02223 1-184); experiment: flow cytometry, NCI-H929 cells
T3 construct: whole, on cells; endogenous BCMA of myeloma cell lines
T3 sequence (looked up): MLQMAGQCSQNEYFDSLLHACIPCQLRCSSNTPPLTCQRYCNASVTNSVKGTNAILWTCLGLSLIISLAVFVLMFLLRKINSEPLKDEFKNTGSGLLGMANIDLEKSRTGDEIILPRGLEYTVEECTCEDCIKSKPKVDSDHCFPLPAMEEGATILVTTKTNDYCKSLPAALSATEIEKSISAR

[4] = target: T3, human BCMA on cells (NCI-H929, NCI-H929 …); experiment: flow cytometry, NCI-H929 cells, one-site fit
[5] = target: T4, human CD3 on cells (HPB-ALL cells, primary human T cells) (human, UniProt P07766 23-207); experiment: flow cytometry, human CD4+ T cells
T4 construct: whole, on cells; only the epsilon chain is written
T4 sequence (P07766 23-207): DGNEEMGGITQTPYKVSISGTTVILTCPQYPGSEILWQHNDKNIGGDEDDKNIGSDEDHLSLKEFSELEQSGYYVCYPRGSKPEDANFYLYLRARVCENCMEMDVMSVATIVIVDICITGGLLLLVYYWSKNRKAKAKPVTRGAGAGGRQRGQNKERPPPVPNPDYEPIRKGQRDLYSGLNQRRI

T1 sequence (A0A2K5UD97 entry or part of it): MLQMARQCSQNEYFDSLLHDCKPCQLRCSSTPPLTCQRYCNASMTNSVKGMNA

| Binder | Kd [1] | Kd [2] | Maximum binding (RFI) [3] | Kd [4] | MFI at 800 nM [5] |
| --- | --- | --- | --- | --- | --- |
| Anti-BCMA-D3-MP04-A2 FAB (Fab, V domains shown, Fab) VH: EVQLVESGGGLIQPGGSLRLSCAASGFIFSHYEMNWVRQAPGKGLEWVSAIGQQGGNTVYADSVKGRFTISRDNSKNTLYLQMNSLRAEDTAVYYCARVPYSYSGYSGADIWGQGTLVTVSS VL: not shown | 0.01 nM | 0.03 nM | 21500 RFI | 7.68 nM |  |
| Anti-BCMA-D3-MP04-C2 FAB (Fab, V domains shown, Fab) VH: EVQLVESGGGLIQPGGSLRLSCAASGFIFSHYEMNWVRQAPGKGLEWVSAIGQFGGNTVYADSVKGRFTISRDNSKNTLYLQMNSLRAEDTAVYYCARVPYSYSGYSGADIWGQGTLVTVSS VL: not shown | 0.02 nM | 0.03 nM | 24600 RFI | 6.49 nM |  |
| Anti-BCMA-D3-MP03-G7 FAB (Fab, V domains shown, Fab) VH: EVQLVESGGGLIQPGGSLRLSCAASGFIFSHYEMNWVRQAPGKGLEWVSIIGQRGHTTEYADSVKGRFTISRDNSKNTLYLQMNSLRAEDTAVYYCARVPYSYSGYSGADIWGQGTLVTVSS VL: not shown | 0.31 nM | 0.41 nM | 21500 RFI | 29.5 nM |  |
| Anti-BCMA-D3-MP04-C8b FAB (Fab, V domains shown, Fab) VH: EVQLVESGGGLIQPGGSLRLSCAASGFIFSHYEMNWVRQAPGKGLEWVSAIGQIGFGTLYADNVKGRFTISRDNSKNTLYLQMNSLRAEDTAVYYCARVPYSYSGYSGADIWGQGTLVTVSS VL: not shown | 0.11 nM | 0.03 nM | 28300 RFI | 7.39 nM |  |
| Anti-BCMA-D3-MP04-E11 FAB (Fab, V domains shown, Fab; also called anti-BCMA-D3-E11; D3-E11) VH: EVQLVESGGGLIQPGGSLRLSCAASGFIFSHYEMNWVRQAPGKGLEWVSAIGQLGGNTVYADSVKGRFTISRDNSKNTLYLQMNSLRAEDTAVYYCARVPYSYSGYSGADIWGQGTLVTVSS VL: not shown | 0.01 nM | 0.01 nM | 31800 RFI | 13.4 nM |  |
| Anti-BCMA-D3-MP04-C8a FAB (Fab, V domains shown, Fab) VH: EVQLVESGGGLIQPGGSLRLSCAASGFIFSHYEMNWVRQAPGKGLEWVSAIGQMGFGTLYADNVKGRFTISRDNSKNTLYLQMNSLRAEDTAVYYCARVPYSYSGYSGADIWGQGTLVTVSS VL: not shown | 0.17 nM | 0.09 nM | 26500 RFI | 3.65 nM |  |
| Anti-BCMA-D3-MP04-D4 FAB (Fab, V domains shown, Fab) VH: EVQLVESGGGLIQPGGSLRLSCAASGFIFSHYEMNWVRQAPGKGLEWVSAIGQVGGNTVYADSVKGRFTISRDNSKNTLYLQMNSLRAEDTAVYYCARVPYSYSGYSGADIWGQGTLVTVSS VL: not shown | 0.01 nM | 0.02 nM | 25300 RFI | 8.84 nM |  |
| Anti-CD3-C1-UCP01-B9 IgG1LALA (antibody, V domains shown, IgG1 LALA) VH: QVQLVQSGAEVKKPGSSVKVSCKASGGKFSRYAISWVRQAPGQGLEWMGGINAPVVRSPEYAQKFQGRVTITADESTSTAYMELSSLRSEDTAVYYCARYGYSLYMDIWGQGTLVTVSS VL: not shown |  |  |  |  | 108000 MFI |
| Anti-CD3-C1-UCP01-E6 IgG1LALA (antibody, V domains shown, IgG1 LALA) VH: QVQLVQSGAEVKKPGSSVKVSCKASGGKFSRYAISWVRQAPGQGLEWMGGITPPHVGIADYAQKFQGRVTITADESTSTAYMELSSLRSEDTAVYYCARYGYSLYMDIWGQGTLVTVSS VL: not shown |  |  |  |  | 231000 MFI |
| Anti-BCMA-D3-MP04-B11a FAB (Fab, V domains shown, Fab) VH: EVQLVESGGGLIQPGGSLRLSCAASGFIFSHYEMNWVRQAPGKGLEWVSAIGQVDGEVYADSVKGRFTISRDNSKNTLYLQMNSLRAEDTAVYYCARVPYSYSGYSGADIWGQGTLVTVSS VL: not shown | 0.24 nM | 0.14 nM | 23700 RFI | 6.03 nM |  |
| Anti-BCMA-D3-MP04-F3 FAB (Fab, V domains shown, Fab) VH: EVQLVESGGGLIQPGGSLRLSCAASGFIFSHYEMNWVRQAPGKGLEWVSAIGQVGNTVYADSVKGRFTISRDNSKNTLYLQMNSLRAEDTAVYYCARVPYSYSGYSGADIWGQGTLVTVSS VL: not shown | 3.03 nM | 0.64 nM | 19500 RFI | 7.12 nM |  |
| Anti-BCMA-D3-MP05-A9 FAB (Fab, V domains shown, Fab) VH: EVQLVESGGGLIQPGGSLRLSCAASGFIFSHYEMNWVRQAPGKGLEWVSAIGQGGNTVYADSVKGRFTISRDNSKNTLYLQMNSLRAEDTAVYYCARVPYSYAGYSGADIWGQGTLVTVSS VL: not shown | 6.54 nM | 2.3 nM |  |  |  |
| Anti-BCMA-D3-MP04-B11d FAB (Fab, V domains shown, Fab) VH: EVQLVESGGGLIQPGGSLRLSCAASGFIFSHYEMNWVRQAPGKGLEWVSAIGQVAAEVYADSVKGRFTISRDNSKNTLYLQMNSLRAEDTAVYYCARVPYSYSGYSGADIWGQGTLVTVSS VL: not shown | 4.85 nM | 5.43 nM |  |  |  |
| Anti-BCMA-D3-MP04-G7 FAB (Fab, V domains shown, Fab) VH: EVQLVESGGGLIQPGGSLRLSCAASGFIFSHYEMNWVRQAPGKGLEWVSAIGQRDGTVYADSVKGRFTISRDNSKNTLYLQMNSLRAEDTAVYYCARVPYSYSGYSGADIWGQGTLVTVSS VL: not shown | 0.14 nM | 0.08 nM | 27000 RFI | 5.82 nM |  |
| Anti-BCMA-D3-MP05-C1b FAB (Fab, V domains shown, Fab) VH: EVQLVESGGGLIQPGGSLRLSCAASGFIFSHYEMNWVRQAPGKGLEWVSAIGQGGNTVYADSVKGRFTISRDNSKNTLYLQMNSLRAEDTAVYYCARVPYSYIGYAGADIWGQGTLVTVSS VL: not shown | 5.86 nM | 2.22 nM |  |  |  |
| Anti-BCMA-D3-MP04-B11c FAB (Fab, V domains shown, Fab) VH: EVQLVESGGGLIQPGGSLRLSCAASGFIFSHYEMNWVRQAPGKGLEWVSAIGQVEGEVYADSVKGRFTISRDNSKNTLYLQMNSLRAEDTAVYYCARVPYSYSGYSGADIWGQGTLVTVSS VL: not shown | 0.34 nM | 0.16 nM | 22900 RFI | 3.9 nM |  |
| Anti-BCMA-D3-MP05-C1a FAB (Fab, V domains shown, Fab) VH: EVQLVESGGGLIQPGGSLRLSCAASGFIFSHYEMNWVRQAPGKGLEWVSAIGQGGNTVYADSVKGRFTISRDNSKNTLYLQMNSLRAEDTAVYYCARVPYSYMGYAGADIWGQGTLVTVSS VL: not shown | 1.03 nM | 1.03 nM |  |  |  |
| Anti-BCMA-D3-MP04-B11b FAB (Fab, V domains shown, Fab) VH: EVQLVESGGGLIQPGGSLRLSCAASGFIFSHYEMNWVRQAPGKGLEWVSAIGQVDAEVYADSVKGRFTISRDNSKNTLYLQMNSLRAEDTAVYYCARVPYSYSGYSGADIWGQGTLVTVSS VL: not shown | 0.79 nM | 0.52 nM | 23300 RFI | 14.1 nM |  |
| Anti-CD3-C1-UCP01-E10 IgG1LALA (antibody, V domains shown, IgG1 LALA; also called anti-CD3-C1-E10) VH: QVQLVQSGAEVKKPGSSVKVSCKASGGKFSRYAISWVRQAPGQGLEWMGGISPFEGTPAYAQKFQGRVTITADESTSTAYMELSSLRSEDTAVYYCARYGYSLYMDIWGQGTLVTVSS VL: not shown |  |  |  |  | 100000 MFI |
| Anti-CD3-C1-UCP01-E11 IgG1LALA (antibody, V domains shown, IgG1 LALA) VH: QVQLVQSGAEVKKPGSSVKVSCKASGGKFSRYAISWVRQAPGQGLEWMGGINPFKGDAEYAQKFQGRVTITADESTSTAYMELSSLRSEDTAVYYCARYGYSLYMDIWGQGTLVTVSS VL: not shown |  |  |  |  | 91800 MFI |
| Anti-CD3-C1-UCP02-E1 IgG1LALA (antibody, V domains shown, IgG1 LALA) VH: QVQLVQSGAEVKKPGSSVKVSCKASGGKFSRYAISWVRQAPGQGLEWMGGISPFKGYAEYAQKFQGRVTITADESTSTAYMELSSLRSEDTAVYYCARYGYSLYMDIWGQGTLVTVSS VL: not shown |  |  |  |  | 151000 MFI |
| Anti-CD3-C1-UCP01-F12 IgG1LALA (antibody, V domains shown, IgG1 LALA) VH: QVQLVQSGAEVKKPGSSVKVSCKASGGKFSRYAISWVRQAPGQGLEWMGGISPFRGHAEYAQKFQGRVTITADESTSTAYMELSSLRSEDTAVYYCARYGYSLYMDIWGQGTLVTVSS VL: not shown |  |  |  |  | 108000 MFI |
| Anti-CD3-C1-UCP01-E12 IgG1LALA (antibody, V domains shown, IgG1 LALA; also called anti-CD3-C1-E12) VH: QVQLVQSGAEVKKPGSSVKVSCKASGGKFSRYAISWVRQAPGQGLEWMGGINPLVGHAEYAQKFQGRVTITADESTSTAYMELSSLRSEDTAVYYCARYGYSLYMDIWGQGTLVTVSS VL: not shown |  |  |  |  | 149000 MFI |
| Anti-CD3-C1-UCP01-H10 IgG1LALA (antibody, V domains shown, IgG1 LALA; also called anti-CD3-C1-H10) VH: QVQLVQSGAEVKKPGSSVKVSCKASGGKFSRYAISWVRQAPGQGLEWMGGISPLVGYPQYAQKFQGRVTITADESTSTAYMELSSLRSEDTAVYYCARYGYSLYMDIWGQGTLVTVSS VL: not shown |  |  |  |  | 151000 MFI |
| Anti-CD3-C1-UCP01-F10 IgG1LALA (antibody, V domains shown, IgG1 LALA; also called anti-CD3-C1-F10) VH: QVQLVQSGAEVKKPGSSVKVSCKASGGKFSRYAISWVRQAPGQGLEWMGGINPHIRFPEYAQKFQGRVTITADESTSTAYMELSSLRSEDTAVYYCARYGYSLYMDIWGQGTLVTVSS VL: not shown |  |  |  |  | 150000 MFI |
| Anti-CD3-C1-UCP01-F1 IgG1LALA (antibody, V domains shown, IgG1 LALA) VH: QVQLVQSGAEVKKPGSSVKVSCKASGGKFSRYAISWVRQAPGQGLEWMGGINPRLGQAEYAQKFQGRVTITADESTSTAYMELSSLRSEDTAVYYCARYGYSLYMDIWGQGTLVTVSS VL: not shown |  |  |  |  | 81300 MFI |
| Anti-CD3-C1-UCP01-G12 IgG1LALA (antibody, V domains shown, IgG1 LALA) VH: QVQLVQSGAKVKKPGSSVKVSCKASGGKFSRYAISWVRQAPGQGLEWMGGISPHIGHPEYAQKFQGRVTITADESTSTAYMELSSLRSEDTAVYYCARYGYSLYMDIWGQGTLVTVSS VL: not shown |  |  |  |  | 121000 MFI |
